Experimental findings from patent US20210040228 are described below.

The series relates to D11-CD8stk-IL2Rg_A5-Hinge-IL2Rb.
Sequence of D11-CD8stk-IL2Rg_A5-Hinge-IL2Rb (chain, as listed by the source, chain 1 of 2): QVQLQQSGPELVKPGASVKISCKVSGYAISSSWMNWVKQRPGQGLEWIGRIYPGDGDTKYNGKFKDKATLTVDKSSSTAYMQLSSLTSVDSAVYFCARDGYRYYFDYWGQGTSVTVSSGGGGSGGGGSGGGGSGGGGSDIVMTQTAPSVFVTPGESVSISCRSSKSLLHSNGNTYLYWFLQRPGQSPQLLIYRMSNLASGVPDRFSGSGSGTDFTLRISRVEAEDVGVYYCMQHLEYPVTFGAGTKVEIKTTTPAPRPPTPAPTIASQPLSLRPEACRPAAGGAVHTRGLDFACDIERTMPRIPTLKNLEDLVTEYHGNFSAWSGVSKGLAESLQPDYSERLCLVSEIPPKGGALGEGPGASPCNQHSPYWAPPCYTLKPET
Sequence of D11-CD8stk-IL2Rg_A5-Hinge-IL2Rb (chain, as listed by the source, chain 2 of 2): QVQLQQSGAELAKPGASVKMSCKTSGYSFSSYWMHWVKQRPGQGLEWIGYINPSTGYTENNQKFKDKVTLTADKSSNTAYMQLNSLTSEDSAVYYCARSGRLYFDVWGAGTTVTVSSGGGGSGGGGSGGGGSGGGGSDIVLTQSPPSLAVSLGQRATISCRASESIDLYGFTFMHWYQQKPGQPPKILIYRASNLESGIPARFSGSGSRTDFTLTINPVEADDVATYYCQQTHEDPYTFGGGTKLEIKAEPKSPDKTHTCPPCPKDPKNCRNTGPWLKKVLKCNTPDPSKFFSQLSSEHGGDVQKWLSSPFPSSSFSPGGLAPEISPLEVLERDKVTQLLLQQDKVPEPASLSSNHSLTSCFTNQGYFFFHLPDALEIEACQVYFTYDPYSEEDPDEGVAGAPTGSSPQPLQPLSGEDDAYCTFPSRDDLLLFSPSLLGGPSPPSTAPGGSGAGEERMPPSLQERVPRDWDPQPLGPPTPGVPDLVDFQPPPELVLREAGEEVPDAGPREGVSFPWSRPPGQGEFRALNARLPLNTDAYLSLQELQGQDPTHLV

As for prostate-specific antigen (PSA), the “phosphorylation of Y694 of STAT5 (phosphoflow), 500 ng/mL PSA for 1 or 4 hours” value is “In the cells expressing the PSA CCR, the presence of PSA lead to increasing STAT5 phosphorylation with time”.
